# Results published in patent US20150344570A1 (published 2015).
# T1: FcγRIIb extracellular domain with C-terminal His tag (human, UniProt P31994 43-217)
# T1 construct: extracellular domain; also called FcgRIIb; 2b
# T1 sequence (looked up): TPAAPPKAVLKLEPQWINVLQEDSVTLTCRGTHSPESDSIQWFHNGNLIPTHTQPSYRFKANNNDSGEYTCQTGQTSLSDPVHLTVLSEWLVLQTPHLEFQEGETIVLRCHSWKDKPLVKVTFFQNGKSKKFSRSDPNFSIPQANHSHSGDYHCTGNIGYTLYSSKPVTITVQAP
# B1: GpH7-A5/GpH7-B3 variant S267_01G/GpL16-k0 (antibody, human IgG1, kappa)
# heavy 1: not shown
# heavy 2: not shown
# light: DIVMTQSPLSLPVTPGEPASISCQASESLVHSNRNTYLHWYLQKPGQSPQLLIYKVSNRFSGVPDRFSGSGSGTDFTLKISRVEAEDVGVYYCSQNTHVPPTFGQGTKVEIERTVAAPSVFIFPPSDEQLKSGTASVVCLLNNFYPREAKVQWKVDNALQSGNSQESVTEQDSKDSTYSLSSTLTLSKADYEKHKVYACEVTHQGLSSPVTKSFNRGEC
# notes: also called He Ab S267_01G
# B2: GpH7-A5/GpH7-B3 variant P331_16H/GpL16-k0 (antibody, human IgG1, kappa)
# heavy 1: not shown
# heavy 2: not shown
# light: B1 light
# notes: also called He Ab P331_16H
# B3: GpH7-A5/GpH7-B3 variant P331_20W/GpL16-k0 (antibody, human IgG1, kappa)
# heavy 1: not shown
# heavy 2: not shown
# light: B1 light
# notes: also called He Ab P331_20W
# B4: GpH7-A5/GpH7-B3 variant S239_03V/GpL16-k0 (antibody, human IgG1, kappa)
# heavy 1: not shown
# heavy 2: not shown
# light: B1 light
# notes: also called He Ab S239_03V
# B5: GpH7-A5/GpH7-B3 variant T335_20W/GpL16-k0 (antibody, human IgG1, kappa)
# heavy 1: not shown
# heavy 2: not shown
# light: B1 light
# notes: also called He Ab T335_20W
# B6: GpH7-A5/GpH7-B3 variant S337_07I/GpL16-k0 (antibody, human IgG1, kappa)
# heavy 1: not shown
# heavy 2: not shown
# light: B1 light
# notes: also called He Ab S337_07I
# B7: GpH7-A5/GpH7-B3 variant S267_06M/GpL16-k0 (antibody, human IgG1, kappa)
# heavy 1: not shown
# heavy 2: not shown
# light: B1 light
# notes: also called He Ab S267_06M
# B8: GpH7-A5/GpH7-B3 variant T335_07I/GpL16-k0 (antibody, human IgG1, kappa)
# heavy 1: not shown
# heavy 2: not shown
# light: B1 light
# notes: also called He Ab T335_07I
# B9: GpH7-A5/GpH7-B3 variant T335_15Y/GpL16-k0 (antibody, human IgG1, kappa)
# heavy 1: not shown
# heavy 2: not shown
# light: B1 light
# notes: also called He Ab T335_15Y
# B10: GpH7-A5/GpH7-B3 variant S337_15Y/GpL16-k0 (antibody, human IgG1, kappa)
# heavy 1: not shown
# heavy 2: not shown
# light: B1 light
# notes: also called He Ab S337_15Y
# B11: GpH7-A5/GpH7-B3 variant S337_20W/GpL16-k0 (antibody, human IgG1, kappa)
# heavy 1: not shown
# heavy 2: not shown
# light: B1 light
# notes: also called He Ab S337_20W
# B12: GpH7-A5/GpH7-B3 variant S239_06M/GpL16-k0 (antibody, human IgG1, kappa)
# heavy 1: not shown
# heavy 2: not shown
# light: B1 light
# notes: also called He Ab S239_06M
# B13: GpH7-A5/GpH7-B3 variant T335_19Q/GpL16-k0 (antibody, human IgG1, kappa)
# heavy 1: not shown
# heavy 2: not shown
# light: B1 light
# notes: also called He Ab T335_19Q
# B14: GpH7-A5/GpH7-B3 variant S298_06M/GpL16-k0 (antibody, human IgG1, kappa)
# heavy 1: not shown
# heavy 2: not shown
# light: B1 light
# notes: also called He Ab S298_06M
# B15: GpH7-A5/GpH7-B3 variant S239_10E/GpL16-k0 (antibody, human IgG1, kappa)
# heavy 1: not shown
# heavy 2: not shown
# light: B1 light
# notes: also called He Ab S239_10E
# B16: GpH7-A5/GpH7-B3 variant V266_06M/GpL16-k0 (antibody, human IgG1, kappa)
# heavy 1: not shown
# heavy 2: not shown
# light: B1 light
# notes: also called He Ab V266_06M
# B17: GpH7-A5/GpH7-B3 variant T335_10E/GpL16-k0 (antibody, human IgG1, kappa)
# heavy 1: not shown
# heavy 2: not shown
# light: B1 light
# notes: also called He Ab T335_10E
# B18: GpH7-A5/GpH7-B3 variant S337_18N/GpL16-k0 (antibody, human IgG1, kappa)
# heavy 1: not shown
# heavy 2: not shown
# light: B1 light
# notes: also called He Ab S337_18N
# B19: GpH7-A5/GpH7-B3 variant S324_06M/GpL16-k0 (antibody, human IgG1, kappa)
# heavy 1: not shown
# heavy 2: not shown
# light: B1 light
# notes: also called He Ab S324_06M
# B20: GpH7-A5/GpH7-B3 variant S267_19Q/GpL16-k0 (antibody, human IgG1, kappa)
# heavy 1: not shown
# heavy 2: not shown
# light: B1 light
# notes: also called He Ab S267_19Q
# B21: GpH7-A5/GpH7-B3 variant T335_13S/GpL16-k0 (antibody, human IgG1, kappa)
# heavy 1: not shown
# heavy 2: not shown
# light: B1 light
# notes: also called He Ab T335_13S
# B22: GpH7-A5/GpH7-B3 variant S239_05P/GpL16-k0 (antibody, human IgG1, kappa)
# heavy 1: not shown
# heavy 2: not shown
# light: B1 light
# notes: also called He Ab S239_05P
# B23: GpH7-A5/GpH7-B3 variant Y296_20W/GpL16-k0 (antibody, human IgG1, kappa)
# heavy 1: not shown
# heavy 2: not shown
# light: B1 light
# notes: also called He Ab Y296_20W
# B24: GpH7-A5/GpH7-B3 variant S337_08L/GpL16-k0 (antibody, human IgG1, kappa)
# heavy 1: not shown
# heavy 2: not shown
# light: B1 light
# notes: also called He Ab S337_08L
# B25: GpH7-A5/GpH7-B3 variant T335_18N/GpL16-k0 (antibody, human IgG1, kappa)
# heavy 1: not shown
# heavy 2: not shown
# light: B1 light
# notes: also called He Ab T335_18N
# B26: GpH7-A5/GpH7-B3 variant T335_16H/GpL16-k0 (antibody, human IgG1, kappa)
# heavy 1: not shown
# heavy 2: not shown
# light: B1 light
# notes: also called He Ab T335_16H
# Target: T1, FcγRIIb extracellular domain with …
# Assay: SPR (Biacore), relative binding
row,He/Con_2b,Binder
1,105 % of HeCon Ab GpH7-A5/GpH7-B3/GpL16-k0,B1
2,116 % of HeCon Ab GpH7-A5/GpH7-B3/GpL16-k0,B2
3,111 % of HeCon Ab GpH7-A5/GpH7-B3/GpL16-k0,B3
4,108 % of HeCon Ab GpH7-A5/GpH7-B3/GpL16-k0,B4
5,104 % of HeCon Ab GpH7-A5/GpH7-B3/GpL16-k0,B5
6,104 % of HeCon Ab GpH7-A5/GpH7-B3/GpL16-k0,B6
7,210 % of HeCon Ab GpH7-A5/GpH7-B3/GpL16-k0,B7
8,106 % of HeCon Ab GpH7-A5/GpH7-B3/GpL16-k0,B8
9,108 % of HeCon Ab GpH7-A5/GpH7-B3/GpL16-k0,B9
10,100 % of HeCon Ab GpH7-A5/GpH7-B3/GpL16-k0,B10
11,109 % of HeCon Ab GpH7-A5/GpH7-B3/GpL16-k0,B11
12,101 % of HeCon Ab GpH7-A5/GpH7-B3/GpL16-k0,B12
13,100 % of HeCon Ab GpH7-A5/GpH7-B3/GpL16-k0,B13
14,102 % of HeCon Ab GpH7-A5/GpH7-B3/GpL16-k0,B14
15,181 % of HeCon Ab GpH7-A5/GpH7-B3/GpL16-k0,B15
16,251 % of HeCon Ab GpH7-A5/GpH7-B3/GpL16-k0,B16
17,108 % of HeCon Ab GpH7-A5/GpH7-B3/GpL16-k0,B17
18,103 % of HeCon Ab GpH7-A5/GpH7-B3/GpL16-k0,B18
19,112 % of HeCon Ab GpH7-A5/GpH7-B3/GpL16-k0,B19
20,218 % of HeCon Ab GpH7-A5/GpH7-B3/GpL16-k0,B20
21,102 % of HeCon Ab GpH7-A5/GpH7-B3/GpL16-k0,B21
22,102 % of HeCon Ab GpH7-A5/GpH7-B3/GpL16-k0,B22
23,103 % of HeCon Ab GpH7-A5/GpH7-B3/GpL16-k0,B23
24,100 % of HeCon Ab GpH7-A5/GpH7-B3/GpL16-k0,B24
25,102 % of HeCon Ab GpH7-A5/GpH7-B3/GpL16-k0,B25
26,102 % of HeCon Ab GpH7-A5/GpH7-B3/GpL16-k0,B26
